{"source": "patent US20080248034A1", "about": "(MORPHOTEK, published 2008)", "target": "tetanus toxoid (TT) (UniProt P04958 2-1315)", "sequence (P04958 2-457 limits assumed, chain 1 of 2)": "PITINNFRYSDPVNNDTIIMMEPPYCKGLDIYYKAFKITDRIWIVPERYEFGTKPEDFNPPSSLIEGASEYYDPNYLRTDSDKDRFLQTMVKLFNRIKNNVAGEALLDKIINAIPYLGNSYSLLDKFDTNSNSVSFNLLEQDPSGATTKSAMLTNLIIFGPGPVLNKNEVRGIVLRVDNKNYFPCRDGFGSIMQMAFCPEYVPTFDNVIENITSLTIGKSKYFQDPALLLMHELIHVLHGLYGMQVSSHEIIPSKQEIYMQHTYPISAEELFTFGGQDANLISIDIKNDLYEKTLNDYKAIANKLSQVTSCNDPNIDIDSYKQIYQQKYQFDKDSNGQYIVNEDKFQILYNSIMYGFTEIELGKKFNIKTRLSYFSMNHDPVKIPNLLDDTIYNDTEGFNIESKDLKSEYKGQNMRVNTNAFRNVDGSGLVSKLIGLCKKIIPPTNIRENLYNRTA", "sequence (P04958 458-1315 limits assumed, chain 2 of 2)": "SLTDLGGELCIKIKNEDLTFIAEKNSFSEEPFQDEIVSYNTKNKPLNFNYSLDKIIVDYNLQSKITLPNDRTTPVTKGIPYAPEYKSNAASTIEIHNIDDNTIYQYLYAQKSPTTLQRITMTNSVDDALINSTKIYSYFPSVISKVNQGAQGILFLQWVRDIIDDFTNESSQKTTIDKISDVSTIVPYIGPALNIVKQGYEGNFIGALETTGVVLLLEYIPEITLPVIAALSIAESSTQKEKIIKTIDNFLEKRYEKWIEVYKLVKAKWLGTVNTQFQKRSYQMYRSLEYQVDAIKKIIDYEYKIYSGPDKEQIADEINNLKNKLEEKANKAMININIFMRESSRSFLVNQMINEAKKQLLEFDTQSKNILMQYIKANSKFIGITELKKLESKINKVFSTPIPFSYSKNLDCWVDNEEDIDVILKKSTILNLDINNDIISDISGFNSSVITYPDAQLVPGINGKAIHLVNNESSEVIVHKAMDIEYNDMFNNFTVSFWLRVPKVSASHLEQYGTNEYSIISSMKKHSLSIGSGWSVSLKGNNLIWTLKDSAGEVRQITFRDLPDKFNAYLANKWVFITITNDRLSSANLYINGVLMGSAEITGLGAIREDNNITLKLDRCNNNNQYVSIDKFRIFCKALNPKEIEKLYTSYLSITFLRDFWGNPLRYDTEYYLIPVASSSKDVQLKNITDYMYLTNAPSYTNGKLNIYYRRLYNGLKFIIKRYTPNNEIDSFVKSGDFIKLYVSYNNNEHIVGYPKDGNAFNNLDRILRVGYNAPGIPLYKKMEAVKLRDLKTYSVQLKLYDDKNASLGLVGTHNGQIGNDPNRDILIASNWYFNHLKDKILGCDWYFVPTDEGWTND", "test": "antigen-specific ELISA, coated at 1:500 dilution (FIG. 4B)", "data": [{"binder": "Fc-TEM1 (soluble recombinant endosialin: full-length TEM1 extracellular domain fused to monomeric murine IgG2b Fc) (Fc fusion, human, extracellular domain; Monomeric secreted fusion protein made in CHO cells; also called TEM1-Fcγ; not shown: murine IgG2b Fcγ domain (hinge through CH3), modified: the four cysteine residues responsible for inter-heavy chain disu) QDPWAAEPRAACGPSSCYALFPRRRTFLEAWRACRELGGDLATPRTPEEAQRVDSLVGAGPASRLLWIGLQRQARQCQLQRPLRGFTWTTGDQDTAFTNWAQPASGGPCPAQRCVALEASGEHRWLEGSCTLAVDGYLCQFGFEGACPALQDEAGQAGPAVYTTPFHLVSTEFEWLPFGSVAAVQCQAGRGASLLCVKQPEGGVGWSRAGPLCLGTGCSPDNGGCEHECVEEVDGHVSCRCTEGFRLAADGRSCEDPCAQAPCEQQCEPGGPQGYSCHCRLGFRPAEDDPHRCVDTDECQIAGVCQQMCVNYVGGFECYCSEGHELEADGISCSPAGAMGAQASQDLGDELLDDGEDEEDEDEAWKAFNGGWTEMPGILWMEPTQPPDFALAYRPSFPEDREPQIPYPEPTWPPPLSAPRVPYHSSVLSVTRPVVVSATHPTLPSAHQPPVIPATHPALSRDHQIPVIAANYPDLPSAYQPGILSVSHSAQPPAHQPPMISTKYPELFPAHQSPMFPDTRVAGTQTTTHLPGIPPNHAPLVTTLGAQLPPQAPDALVLRTQATQLPIIPTAQPSLTTTSRSPVSPAHQISVPAATQPAALPTLLPSQSPTNQTSPISPTHPHSKAPQIPREDGPSPKLALWLPSPAPTAAPTALGEAGLAEHSQRDDRWLDDDD", "values": [{"measurement": "binding result", "value": "no binding (tested: 5, 10, 50 ug/ml)"}]}]}
